From US20040265906A1
Values belong to the substance of their own block, whether it stands above or below them.

Assays:
Experiment in all cases: cell-based or functional assay
[1] = target: H3 peptide segment (first 30 amino acids of H3) of the phosphorylation indicator, phosphorylated by Msk-1
[2] = target: H3 peptide (first 30 amino acids of H3) of the H3 methylation indicator, methylated by G9a
[3] = target: H4 peptide of the H4 acetylation indicator, acetylated by CBP

YFP/CFP emission ratio increase (FRET) on in vitro phosphorylation by Msk-1 [1]: 25%
Substance: 14-3-3 domain of the histone 3 phosphorylation indicator

YFP/CFP emission ratio increase (FRET) on in vitro methylation by G9a + SAM [2]: 20%
Substance: chromodomain of HP1 in the H3 methylation indicator

YFP/CFP emission ratio increase (FRET) on in vitro acetylation by CBP + acetyl-CoA [3]: 11%
Substance: bromodomain of the Drosophila transcription factor TAF250 in the H4 acetylation reporter
